# Laboratory results published in PMC8351736 (Molecular Biology of the Cell, 2021).
# Numbering of substitutions follows the chain as printed. Names may count otherwise. Like-named read-outs stand apart in the source and are kept apart here. Ends that are not written are not given here. * marks the point of attachment. FITC = O=C1OC2(c3ccc(O)cc3Oc3cc(O)ccc32)c2ccc(NC(=S)*)cc21
# B1: 6-histidine-tagged actin capping protein (His-Cap1/2 heterodimer) (complex, S. cerevisiae)
# chain 1: MSSSKFEEVINKIINDSPPGELREVYDDLIKITSENSKNTILDAIENYNVQNCIPIEVNGNSVIISKYNKEGAKFFDPVNSVIFSVNHLERKGLDIEPYEFTHAKIEKGQLKELHDKLHEYLLQSFPGDVSFAVYPVPEEISKISIIIVSTKYNPNNFWNGHWRSSYIYDLETRELSGQISTQVHYYEDGNVSFQSGKDINQSNVDDVVCTIRDIETNFENDLDLSFFDLNEKQFKALRRRLPVTRSKINWGSAIGSYRLGKNAAEGK
# chain 2: MSDAQFDAALDLLRRLNPTTLQENLNNLIELQPNLAQDLLSSVDVPLSTQKDSADSNREYLCCDYNRDIDSFRSPWSNTYYPELSPKDLQDSPFPSAPLRKLEILANDSFDVYRDLYYEGGISSVYLWDLNEEDFNGHDFAGVVLFKKNQSDHSNWDSIHVFEVTTSPSSPDSFNYRVTTTIILHLDKTKTDQNSHMMLSGNLTRQTEKDIAIDMSRPLDVIFTSHVANLGSLIEDIESQMRNLLETVYFEKTRDIFHQTKNAAIASSAEEANKDAQAEVIRGLQSL
# B2: 6-histidine-tagged Tda2 (His-Tda2) (natural protein, S. cerevisiae)
# chain: SMQIEIKDGRSDNSPLPERKLVTLIQESYDSLKDDNEINLSTESTSNLLIKLVLEKLEKHSSLYKYIASVTTLNIEGLNEENANFSLKNDIGASWESKKDGIFNYKLEDKNNNECYLITILWLHK
# B3: FITC-Aim21^CPI+TBR with 25 µM His-Tda2 (reconstituted Tda2-Aim21 peptide complex) (complex, S. cerevisiae)
# peptide: KTGPLGGTRRGRGPRGRKLPSKVASVEKIEEDDNTNKIEIFNNWNVS
# chain: B2 chain
# modifications: FITC label (printed FITC-KTGPLGG...)
# B4: His-Tda2 D101A (natural protein, S. cerevisiae)
# chain: B2 chain with D100A
# B5: His-Tda2 F86V (natural protein, S. cerevisiae)
# chain: B2 chain with F85V
# Key:
# [1] = molecular target: T1, Aim21^1-600-GST (S. cerevisiae, UniProt P40563 1-600); assay: pull-down
# T1 sequence (looked up): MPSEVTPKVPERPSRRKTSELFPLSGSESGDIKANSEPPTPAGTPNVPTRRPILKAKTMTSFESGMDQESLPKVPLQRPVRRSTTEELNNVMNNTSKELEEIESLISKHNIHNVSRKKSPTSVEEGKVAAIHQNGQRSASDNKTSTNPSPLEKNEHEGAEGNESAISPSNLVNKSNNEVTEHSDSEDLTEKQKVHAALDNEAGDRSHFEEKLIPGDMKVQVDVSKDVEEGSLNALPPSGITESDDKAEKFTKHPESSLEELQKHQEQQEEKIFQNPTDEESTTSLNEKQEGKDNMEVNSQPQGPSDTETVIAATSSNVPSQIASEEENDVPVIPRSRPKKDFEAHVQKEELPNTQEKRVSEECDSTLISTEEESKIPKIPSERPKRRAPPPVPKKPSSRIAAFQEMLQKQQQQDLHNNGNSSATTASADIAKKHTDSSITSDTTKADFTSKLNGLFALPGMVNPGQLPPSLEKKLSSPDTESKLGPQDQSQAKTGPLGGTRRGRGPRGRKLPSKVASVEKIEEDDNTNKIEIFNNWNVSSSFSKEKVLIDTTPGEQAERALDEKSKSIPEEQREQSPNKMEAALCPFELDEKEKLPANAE
# [2] = molecular target: T2, His-tagged Aim21 (His-Aim21) (S. cerevisiae, UniProt P40563 1-679); assay: SEC + other: sucrose density gradient fractionation
# T2 sequence (looked up): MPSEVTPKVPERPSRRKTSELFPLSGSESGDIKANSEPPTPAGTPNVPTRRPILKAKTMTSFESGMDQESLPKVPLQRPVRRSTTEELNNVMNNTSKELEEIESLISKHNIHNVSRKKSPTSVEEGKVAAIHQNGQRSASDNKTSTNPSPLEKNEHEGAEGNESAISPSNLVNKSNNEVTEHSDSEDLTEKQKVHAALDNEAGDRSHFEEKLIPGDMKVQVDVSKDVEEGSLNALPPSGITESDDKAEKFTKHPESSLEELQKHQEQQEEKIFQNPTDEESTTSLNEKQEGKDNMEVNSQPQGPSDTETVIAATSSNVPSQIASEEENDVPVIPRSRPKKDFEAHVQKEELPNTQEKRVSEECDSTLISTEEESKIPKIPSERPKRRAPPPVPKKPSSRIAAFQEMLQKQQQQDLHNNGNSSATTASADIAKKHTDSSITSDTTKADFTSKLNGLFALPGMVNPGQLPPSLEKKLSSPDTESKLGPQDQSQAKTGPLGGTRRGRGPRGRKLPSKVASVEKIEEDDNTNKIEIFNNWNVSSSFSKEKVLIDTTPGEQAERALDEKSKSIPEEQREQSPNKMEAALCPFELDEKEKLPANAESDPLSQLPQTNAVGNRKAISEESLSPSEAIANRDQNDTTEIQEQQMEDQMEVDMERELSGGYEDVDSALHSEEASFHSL
# [3] = molecular target: the molecule itself; assay: as above
# [4] = molecular target: T3, GST-Aim21^504,507,509E (S. cerevisiae, UniProt P40563 1-679, Aim21^504,507,509E | Aim21^504,507,509E | Aim21^504,507,509E); assay: pull-down
# T3 sequence (looked up): T2 sequence (looked up) with R504E, R507E, R509E
# [5] = molecular target: B1; assay: fluorescence polarisation
# [6] = molecular target: the molecule itself; assay: SEC
# [7] = molecular target: B5; assay: pull-down
# [8] = molecular target: T4, His-Tda2 K107E (S. cerevisiae, UniProt P40045 2-126, K107E); assay: pull-down
# T4 sequence: B2 chain with K106E
# [9] = molecular target: T5, His-Tda2 I103Q (S. cerevisiae, UniProt P40045 2-126, I103Q); assay: pull-down
# T5 sequence: B2 chain with I102Q
# [10] = molecular target: B2; assay: fluorescence polarisation
# [11] = molecular target: B1; assay: fluorescence polarisation; remark: listed apart in the source
# [12] = molecular target: B5; assay: fluorescence polarisation
binder,measurement,setting,value
B1,binding result,[1],binds
B2,stoichiometry N,[2],2 Aim21 molecules per Tda2 homodimer
same,stoichiometry N,[3],2
same,binding result,[4],binds
B3,Kd,[5],0.25 µM
B4,binding result,[6],binds
B5,binding result,[6],binds
"KLPSKVASVEKIEEDDNTNKIEIFNNWNVSSSFSKEKVLIDTTPGE (domain or fragment, S. cerevisiae, UniProt P40563 510-555, looked up) [GST-Aim21^510-555 (wild type)]",binding result,[7],binds
same,binding result,[8],binds
same,binding result,[9],binds
"{FITC}-KTGPLGGTRRGRGPRGRKLPSKVASVEKIEEDDNTNKIEIFNNWNVS [FITC-labeled Aim21 peptide spanning AA 493–539, with the CPI motif and the TBR (FITC-Aim21^CPI+TBR)]",binding result,[10],binds
same,Kd,[11],3.1 µM
{FITC}-KIEIFNNWNVS [FITC-labeled Aim21 peptide spanning AA 529–539 (FITC-Aim21)],binding result,[12],binds
